The target of this assay is receptors for SCF (kit) on EML clone 1 cells (UniProt P05532). Nature of the assay: cell-based or functional assay.
Sequence of UniProt P05532 (P05532 25-979 limits assumed): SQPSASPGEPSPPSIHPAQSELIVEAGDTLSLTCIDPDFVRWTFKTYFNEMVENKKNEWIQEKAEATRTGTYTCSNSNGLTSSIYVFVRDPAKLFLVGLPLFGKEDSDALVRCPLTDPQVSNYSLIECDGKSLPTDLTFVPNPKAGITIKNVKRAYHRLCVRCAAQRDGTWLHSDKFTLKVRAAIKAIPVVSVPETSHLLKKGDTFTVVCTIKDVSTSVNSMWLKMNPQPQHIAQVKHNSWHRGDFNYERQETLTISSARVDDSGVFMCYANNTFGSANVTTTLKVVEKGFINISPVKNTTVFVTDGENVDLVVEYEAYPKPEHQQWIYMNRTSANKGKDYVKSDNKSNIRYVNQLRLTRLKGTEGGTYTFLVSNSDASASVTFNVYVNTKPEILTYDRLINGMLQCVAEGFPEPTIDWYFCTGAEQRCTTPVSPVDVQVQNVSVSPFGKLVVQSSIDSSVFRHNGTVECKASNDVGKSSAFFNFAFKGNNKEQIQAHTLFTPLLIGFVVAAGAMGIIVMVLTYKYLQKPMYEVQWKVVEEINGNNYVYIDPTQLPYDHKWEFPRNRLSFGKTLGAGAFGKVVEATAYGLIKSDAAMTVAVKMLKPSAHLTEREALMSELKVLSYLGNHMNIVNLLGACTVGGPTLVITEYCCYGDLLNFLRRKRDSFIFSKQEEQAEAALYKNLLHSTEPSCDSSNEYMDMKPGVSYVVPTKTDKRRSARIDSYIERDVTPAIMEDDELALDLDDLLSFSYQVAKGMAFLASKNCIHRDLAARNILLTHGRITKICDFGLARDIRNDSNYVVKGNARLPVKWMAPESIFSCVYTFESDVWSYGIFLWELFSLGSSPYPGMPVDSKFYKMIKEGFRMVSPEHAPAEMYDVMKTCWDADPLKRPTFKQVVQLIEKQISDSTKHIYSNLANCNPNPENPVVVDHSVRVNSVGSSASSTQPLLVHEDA

As for Stem Cell Factor (SCF) (ligand), the fold-increase over control of cell proliferation of EML cells (total DNA, 5 days), 10 nM SCF is 1.25 fold and the fold-increase over control of cell proliferation of EML cells (total DNA, 5 days), 50 nM SCF turned out to be 2.4 fold.

The values are drawn from patent US20090275130A1.
